The subject of this series is HEK293 cells. In kind it is cell-based, human. Conditions: luminescence from secreted Gluc in supernatant 24 hours after transfection of HEK293 cells; circular RNA encoding Gluc with the named IRES (UTR truncated to 675 nt).

B1: Chicken picornavirus 1 (nucleic acid)
DNA: GTGGCCGACTTGCAGAACTTCCTACCGAACCACCACCTCACCCCCATAACTCCTTCCCTCTACACCTTCCGCTATGGTGGTTACCACTGCTTTATTGCCTTGACTGAGAATGGCCACCCCCTCGACACCTGCCCCCTACTGCCCCACCGCGCAACCTTTTGCTTGTCCACTCGGTTGGAGAGGCATGGGGGCCCCGTTCATATCCCCAGTCCAGTTGGTGACCTTCCCCCTCCCCGTCCGGTAGATGGTCCAGAGGGCTTTGCCGACGCCCTCTATGATGCTTGCTTGTCTTTCCTCCGTCAGCGCGAGCATGCACTTGTCGAGCCCACGGAAACACAGCCTAGCTTTTGCTTCTCTCACCCTGCGTACCCTGGGCGCCTTCCGCTCGAGATTCGCTTTGTTCGACACCCTGGCGTCCCCCCACCGCTACGTGATTTTACTCGTGGCATACACCGCCCTGGCGTTCAGTACATTCCACTGCCTAATTTGGGTGGCCTCCCTCAATCTCCCGCACCCCCCATTGCGCACGTCATCACCGCCGCCGCTAACGCGATCCGGCGCGGTTCTCACTGGCACTGTCCCCTCGTCCGCCGGGTTTCCACTCATGGTTGGCTTTTCACTTATTCTGGTTACTGGTGTTCCATCCTACTTCATGATGGTCGCCATGACCATGAC
As to B1, the Expression is listed as 1.21E+05.

B2: Camel alphacoronavirus (nucleic acid, listed as Alphacoronavirus sp.)
DNA: CTTAAGTGTCTTATCTATCTATAGATAGAAAAGTCGCTTTTTAGACTTTGTGTCTACTCTTCTCAACTAAACGAAATTTTTGCTACGGCCGGCATCTCTGATGCTGGAGTCGTGGCGTAATTGAAATTTCATTTGGGTTGCAACAGTTTGGAAATAAGTGCTGTGCGTCCTAGTCTAAGGGTTCTGTGTTCTGTCACGGGATTCCATTCTACAAACGCCTTACTCGAGGTTCTGTCTCGTGTTTGTGTGGAAGCAAAGTTCTGTCTTTGTGGAAACCAGTAACTGTTCCTA
Consider B2, for which the Expression is listed as 2.48E+05.

B3: Human coxsackievirus A2 (nucleic acid)
DNA: ACCTTTGTGCGCCTGTTTTATATCCCCACCCCGAGTAAACGTTAGAAGTTACGCAACCCCGATCAATAGTAGGTGTAGCACTCCAGCTGCATCGAGATCAAGCACTTCTGTCTCCCCGGACCGAGTATCAATAGACTGCTAACGCGGTTGAAGGAGAAAACGTTCGTTACCCGGCCAATTACTTCGAGAAGCCCAGTAGTGCCGTGAAAGTTGCGGAGTGTTTCGCTCAGCACTTCCCCCGTGTAGATCAGGCTGATGAGTCACCGCGATCCCCACAGGTGACTGTGGCGGTGGCTGCGTTGGCGGCCTGCCTATGGGGCAACCCATAGGACGCTCTAATACAGACATGGTGCGAAGAGCCTATTGAGCTAATTGGTAGTCCTCCGGCCCCTGAATGCGGCTAATCCTAACTGCGGAGCACATGCCCTCAAACCAGGGGGTGGTGTGTCGTAACGGGTAACTCTGCAGCGGAACCGACTACTTTGGGTGTCCGTGTTTCTTTTTATTCTTATAATGGCTGCTTATGGTGACAATTAAAGAATTGTTACCATATAGCTATTGGATTGGCCATCCGGTGACTAACAAATCGCTCATATACCAGTTTGTTGGTTTTGTTCCCTTATCACATACAGCTCATAACACCCTCTTATATTTACTACAATTGAATAGCAAGAA
For B3, the Expression amounted to 7.75E+07.

B4: Poecivirus BCCH-449 (nucleic acid, listed as Poecivirus sp.)
DNA: ACTACACAATCGCAACACGCGCAAGTTTGTAGTTTGATTGGCGTGCAAATGTCAAATCAAGCATATAACACAATTTGGTGGCTGTTGGTGTTTGTTATAGGAATTTTGGTTGTGTTGAAATTGTGGATGTGTAGGAAATATGCACAATTACGTCAGCGTCAGGAGTTTTATAACCTGGCGCAACACCAAAATGGTCTTCGCGCTTTAACATCACCAGCGAGGTGTAAACAAATTGAAGTTGAATTAGATCGTGTATAGGCCAGGGAACCATCCCTCCCAACGCCACATCTTGTGGGGAAGTTGGGATAATGGTGGGTCTATATGAATTGGTCTGTAGACCCACAGTGAAGAGTGAATAGTATGCTTGCGGTTCCATTTGTTAATGGTCTAGCATGGGTGGGGGCGGCAACCCCGTGAGGGGTTCCCCACTGGCCAAAAGCCCAGGGGTTAGTCATTTCAACCAAGGAAGCTGGTAACCTGGTGACCTGAACTTGAGTGGTGAGACCCCCTTGCTAGAGTGTGTAAACCGATTGTAAGCATTTTGTTTGCTTAGTATCTGTGGTATAAGCAGTCAATTTTGTATAGGCTCAAGGCTGTGGTAGTTAGTAGATGCCCGGAAGGTTATTACTGATCCGGGGACCGTGACTATACATTAGGTAAACCGGTTTAAAAACC
For B4, the Expression came to 3.43E+05.

B5: Coronavirus AcCoV-JC34 (nucleic acid)
DNA: AGAAACAAGTAGTGTTTTAAAAACCTTCAAATTAGTGCCTGTAACATCTTTGCAATGAAAGTAGCGCTCACTAGCCTCTATGCAAAGAATGTTAAAAGAAATACGAAGCATTTAAAGAATACAATCTATCTAGGATAGGTACAATTCTCCTCCCCCTCTTGACTTCGGTCAACTCAACTCAACTAAACGAAATCCCCCTTGCATGGTTCCGACCCGTGTAAGGTTGTGTATTTCGTGCAGTCGTTGCCCTTACTAGTGTAAGCGTAACGGCATCTAGGTTTGCACGTCTTGGAGGAAACGGTGTGTACGTTTCTAGTGTTTACGCCGTATCGGTTCCGGCCCGATAGGTATTGCATTAGACGTCCTGGGTGGTTCTGCCTGCCCTTGTGTGATTCGGCTGTTCCGTCAGTTTGGTCACCTCACACGTCCTTAAGAC
Consider B5, for which the Expression was determined as 1.82E+05.

B6: Chicken calicivirus (nucleic acid)
DNA: GGTGCATCATCACTGAACACCCTCGGGCAGAGATGCAAGGGTGGAAGTCACTCCTGCCCCCTGGCAACATGCAGGTGCCCGATCCCAAGCTTAGTTCTGACTTCCTCTCCTGGGTGGTGCAACACTCCAAGGTTGATGAACAAACCTGGAGGGACCTCTGGGCAACCTGGTCTCTCGAGGATCTCCGGCGCATCTCCACAGACTACCTCATGCTCCCGGAACCTGAGAAGAACACTGATGCCTATGATGGCTGGCTGATGGTCGGCGAGATGTTGACCTTTGCCGGTCTCATTGGCTGGGAGG
B6 gave an Expression of 1.28E+05.

B7: Chicken orivirus 1 (nucleic acid, listed as Orivirus sp.)
DNA: AAACCCTCACGAGTGCTTGTGGTAGGTCCCAGGCCAATATTCTTCGTAAGGCTTGGTTCCAATTTTCCACCACTCGTGTTTGGGTTCTGGCCTATGGTACCCAGAGGGGCGGTTTGGGGGAATTAACTCCCCCTCCCCTGTGGTCCTATACCACCCCACACCTCTGTGGGCTTTCTTTACTATCTTCTTGTTTTCCGACTTTTAAACACTAGGCAGGCGCGCCTAGTCATACACCGCCCGGCTGGTCTTTCCAGCTCTTGTGGGCGGTGCGCGCTGGTCCATCGTGCCCAGCGACATAGCACCTTGTGGACACCTCCGAACGCCCTCCCCTGTATGGGGTGGTGCCCAGGGGTTTCAGTGTGGTGACACACTCCCTGGGGCCCGAAAGGCTAGTGTGCAACAGGTGAGGTACAGCCAGCTGCCCCCGTGGCTGGAGGGACCAAGCTTGTGAAGCACACCTCACCTTCTTGGGGGTGGGCTAGTAAGTGGTGAAAGCATAGTGTCCGTGTCGCTGGCCAACACTTTGGGTCAAGTCCAGCCACTCAGTGAGTAGATGCCCAGGAGGTACCCCTAGTGGATCTGACTTGGGGCCTGTTACTTAATGCAGGTTAAAAACTATGAAAGCTGAGTAGTGTAGCCCGGCTGGTGGCTTCTCTTCCTTATTCATTCTATTTT
Consider B7, for which the Expression came out at 3.16E+05.

B8: Chicken gallivirus 1 (nucleic acid, listed as Gallivirus sp.)
DNA: GGTTAACTTGTTTAACCAAGGCTTCCGTGCAGGGCTTGCACGTTAGGAGTTCATGTTGATTCATGCTCCAATGCCCAAAACTTTGTGTGTTTGTTTATGTCTTTCCCAAAGTTTCCCCCAAGGTTTCGGTACTCAAACCTTAATTCCTAGTCCCATCTTTTGGGCCTTAGTATCTAGGAAATGTACCCGTGCCTTGACGAACGTAAGAAAGCTGTCTTTTATTGAACGGTTCTAATGAACTAAGTATAACTGGCTCGCGCCACCTGGTGTGTGCCGTTGGAATTCCCCCATGGTAACATGGTCCAACGGGCCCGAAAGGCTAGTGGGCAATCGGTCCTCCAAGGAAGGGGTTCCCACCCCGACCTGAACAGGATTTGATGAAGCTCACCTCCCAGGCTCCTAACCCCAAGGAAGTTTACTTATAGTAATTAGAATTTAGTATGTAATTGCTGGCAATCTTGCTAGTAGTCAGGAACGTTATGACCAAATGAGTAGACCCCCAGAAGGTACCCCATTATATGGGATCTGATCTGGGCCTCATACTGTGTGTCTCCCCACATATGAGGTTAAAACCATGAAAGTTTGGTCCAAAATATTCTTTTCCTTTTATCTTTTCTTTAGTGGTGACGCCATTATATCAGCAGTTTGCTG
In turn, B8 gave an Expression of 1.51E+07.

B9: Chicken picornavirus 3 (nucleic acid)
DNA: GGGTATGGTGGTTAACCCCGTCCACTGGGCATCTTTGCCCTCTCAGAAGTGGATCAATCCACCCCAACTCCCCCCCTGGTTACCTGAGCCACAGTGGACTCCGGTGACGAAGCTAGGGACCCCAATACCTCAAGTGCCAAGAGAGTCCCCCCCTCGCGAGAGGTGCTCTTGGGCCCAAAAGGCTAGTTGGCAGAGTGAAGTGAAGGAAGCTGCTAACGTGGTGACCTTAAGCGTAATTCGAAGCTGACCTTTGAGGTTAACCCTAGTGGACCACTGGAGGAATCTGTGGAGGTGGTGGTTAGGAAAGTTGGCCACTTGTGAGTAGATGCCCAGAAGGCATAAGGCTGATCTGGGGCCAGTGACTATACCGTTCCGGTAAACCTGGTATAAAAACCATGAAAGCAAGTGGGTGAAATTTTCTCTTTTTATCCTTCATTCAGCAGTTGATATTGGCAAA
For the molecule B9, the Expression was 9.13E+04.

B10: Cripavirus (nucleic acid, listed as Cripavirus sp.)
DNA: GCAAAATCGGTAGTACGTTAAACGTACGACCACCGATGAGACTGAAATGACACTAGTTGAGATTATTTCAATATCCTAGTGTTATAAAGTCAATATTTGTTGGTTGATCGTTTCGTCAATCGATGGCGCTGACAGCCGGAAAGACGGCAATAATAAAAACCAAGATTTAGTTTTTAAGTTTTGATTGAATTGCAAAAGCTATCTTGAATAGACAATCAAAATATTAAGTAAAGCAAAAGCTTCTTAAAGAAGACAATATTTAATTAGTTAGTAACCAAACCTCATCGTGCCCCTAAGGGTTAACCGGTTACGTAAAAGCGTAGAGGTATTAAGGTCACTGCGGAGACCTAAAATCCGCAATTTTATGTTTTGTAATGTTTTAGTTATAGACTTAGATGTAACTATAAGAGTTTATAAATACTTGTTTCAAGATTTATAGACAAGATCTGATCCTATGGATTTTAGATAACCTTCATGTTAGTGGATAGTGTGTGTACCTATCTAAACGCATAAGGCTCTTATTTCATATTTAAAGTAGGACTATGTATTACGGCGCATCTAACGGTAACGTTAGTCAAGACCGGAGAATCTCGGAATGAATTTTAGTAATTCCCAAATTTATA
B10 gave an Expression of 1.95E+05.

Values taken from patent US20230226096A1 (Orna Therapeutics, Inc., priority 2020, published 2023).
